Results on one molecule are retold here after article PMC5347340 (2017).

In assay [1] the target is BG505 gp140.681.R1-1NOG trimer (HIV-1 BG505, UniProt Q2N0S6). Description: BLI. In general terms: Biolayer interferometry detects binding as a change in optical thickness at a sensor tip.
The target in assay [2] is BG505 gp140.681.R1-1V6H trimer (HIV-1 BG505, UniProt Q2N0S6). Kind of assay: BLI.

B1: PGDM1400 (protein)
chain 1: DFVLTQSPHSLSVTPGESASISCKSSHSLIHGDRNNYLAWYVQKPGRSPQLLIYLASSRASGVPDRFSGSGSDKDFTLKISRVETEDVGTYYCMQGRESPWTFGQGTKVDIKRTVAAPSVFIFPPSDEQLKSGTASVVCLLNNFYPREAKVQWKVDNALQSGNSQESVTEQDSKDSTYSLSSTLTLSKADYEKHKVYACEVTHQGLSSPVTKSFNRGEC
chain 2: QAQLVQSGPEVRKPGTSVKVSCKAPGNTLKTYDLHWVRSVPGQGLQWMGWISHEGDKKVIVERFKAKVTIDWDRSTNTAYLQLSGLTSGDTAVYYCAKGSKHRLRDYALYDDDGALNWAVDVDYLSNLEFWGQGTAVTVSSASTKGPSVFPLAPSSKSTSGGTAALGCLVKDYFPEPVTVSWNSGALTSGVHTFPAVLQSSGLYSLSSVVTVPSSSLGTQTYICNVNHKPSNTKVDKKVEPKSCD
In general, Kd refers to the equilibrium constant for the complex coming apart. Low values mean tighter binding, high ones weaker binding. As to B1, the Kd was determined as 4.7 nM in assay [1] and 5.1 nM in assay [2].
